This note sets out measurements from patent publication US10058586B2, “Use of human small leucine zipper protein in adipocyte differentiation procedure” (Korea University Research and Business Foundation, priority 2013, dated 2018).

In one test the test system is PGC1α. Description: GST pull-down of GST-PPARγ2 with anti-PGC1α immunoblot in 293T cells. The class given is binding. The note with it: 10 nM RZD for 24 hours. The procedure:
Therefore, in order to understand a regulation mechanism of sLZIP in the PPARγ2 transcriptional activity by binding to the FABP4 promoter region, an effect of sLZIP on the interaction between PPARγ2 and HDAC3 was examined. For this purpose, 293T cells were transfected with GST-HDAC3, Myc-PPARγ2 and Flag-sLZIP, and were treated or not treated with 10 nM of RZD for 24 hours. Cell lysates were subjected to GST pull-down analysis using a glutathione 4B bead, and a protein complex was analyzed in SDS-PAGE, and then immunoblotted with anti-GST, anti-Myc and anti-Flag antibodies (FIG. 6A). GST-HDAC3, GST-PPARγ2, Myc-PPARγ2, Flag-sLZIP and Ha-UB were expressed in the 293T cells, and the cells were treated with 10 nM of RZD for 24 hours. Cell lysates were subjected to GST pull-down analysis (FIG. 6B). GST-PPARγ2 and Flag-sLZIP were expressed in the 293T cells and treated with 10 nM of RZD for 24 hours. Cell lysates were subjected to GST pull-down analysis, and a protein complex was analyzed in SDS-PAGE, and then immunoblotted with anti-PGC1α, anti-GST and anti-Flag antibodies (FIG. 6C).

For a further test, the target named is T1, PPARγ2 (Homo sapiens, UniProt P37231).
T1 sequence (P37231 1-505): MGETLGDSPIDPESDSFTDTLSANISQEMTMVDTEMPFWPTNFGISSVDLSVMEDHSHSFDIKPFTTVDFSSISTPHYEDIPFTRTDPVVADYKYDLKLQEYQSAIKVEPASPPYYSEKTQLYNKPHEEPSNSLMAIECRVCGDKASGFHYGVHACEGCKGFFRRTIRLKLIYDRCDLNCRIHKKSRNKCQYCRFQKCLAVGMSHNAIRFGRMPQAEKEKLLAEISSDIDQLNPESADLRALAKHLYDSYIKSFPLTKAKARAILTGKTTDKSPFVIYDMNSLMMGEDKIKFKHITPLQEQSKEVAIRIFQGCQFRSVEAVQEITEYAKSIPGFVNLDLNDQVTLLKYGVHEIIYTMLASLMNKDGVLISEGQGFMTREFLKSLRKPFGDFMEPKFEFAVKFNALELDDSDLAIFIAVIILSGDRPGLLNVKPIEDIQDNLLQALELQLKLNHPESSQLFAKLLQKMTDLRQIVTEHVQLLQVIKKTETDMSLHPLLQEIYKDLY
Nature of the test: FABP4 enhancer-luciferase reporter analysis of PPARγ2 transcriptional activity in 293T cells. The class given is cell-based. Further details: expressed in transfected cells; host or cells: 293T cells. The note with it: sLZIP 0.1 to 0.5 μg, 10 nM RZD. The procedure:
Appropriately transfected cells were washed with cold PBS twice, and a reporter lysis buffer (Promega) was used and lysed in a culture dish. Luciferase analysis was performed using a luciferase analysis system (Promega Corporation, Madison, Wis.). A luciferase activity was recorded in Luminometer 20/20^n (Turner BioSystems, Sunnyvale, Calif.) according to instructions of the manufacturer. The luciferase activity was normalized to a β-galactosidase activity. For β-galactosidase analysis, CMV-β-galactosidase was transfected with luciferase reporter genes. All pieces of data were represented as mean±standard deviation of the results from at least three independent experiments.
A DNA binding ability of sLZIP with various elements in the FABP4 enhancer region was examined. For this purpose, recombinant His-sLZIP fusion proteins (3 μg) were incubated with γ-^32P-labeled oligonucleotide probes containing expected CREB binding elements (FIG. 7B). The γ-^32P-labeled oligonucleotide probes were incubated while an amount of purified His-sLZIPs was increased. […]
Adipocyte differentiation is a well-regulated procedure. […] A promoter activity was measured according to luciferase analysis (FIG. 8B). […] Total RNA was extracted from the cells, and an mRNA expression level of mouse LZIPs was measured using RT-PCR analysis. […]
For orientation: Reporter assays use an easily measured gene product as a stand-in for the process of interest.

B1: sLZIP: human small leucine-zipper protein, isoform of LZIP, 354 amino acids, no transmembrane domain; GenBank FJ263669, SEQ ID NO: 1 (protein, listed as Homo sapiens)
chain: MELELDAGDQDLLAFLLEESGDLGTAPDEAVRAPLDWALPLSEVPSDWEVDDLLCSLLSPPASLNILSSSNPCLVHHDHTYSLPRETVSMDLESESCRKEGTQMTPQHMEELAEQEIARLVLTDEEKSLLEKEGLILPETLPLTKTEEQILKRVRRKIRNKRSAQESRRKKKVYVGGLESRVLKYTAQNMELQNKVQLLEEQNLSLLDQLRKLQAMVIEISNKTSSSSMYSSDTRGSLPAEHGVLSRQLRALPSEDPYQLELPALQSEVPKDSTHQWLDGSDCVLQAPGNTSCLLHYMPQAPSAEPPLEWPFPDLFSEPLCRGPILPLQANLTRKGGWLPTGSPSVILQDRYSG
For the molecule B1, the “recruitment of coactivator PGC-1α to PPARγ2” value with PGC1α is on record as “inhibited the complementing of a coactivator PGC-la for PPARγ2”. Also, the “transcriptional activity of PPARγ2 (FABP4 enhancer-luciferase)” value with PPARγ2 is “decreased the transcriptional activity of PPARγ2 in a concentration-dependent manner”.
